Measured values published in patent US20240197834A1 (HANMI PHARM, published 2024).
Square brackets hold non-standard residues; d marks the D form. Ends that are not written are not given here. Aib = CC(C)(N)C(=O)O

The binders below were run against glucagon receptor (assay: cell-based or functional assay).

| Binder | In vitro activity (Relative Activity to SEQ ID NO: 1, %) [%] |
| --- | --- |
| HSQGTFTSDYSKYLDSCEAQDFVQWLMNT [glucagon derivative of SEQ ID NO: 5] | 0.3 |
| HSQGTFTSDYSKYLDCERAQDFVQWLMNT [glucagon derivative of SEQ ID NO: 3] | 6.1 |
| Y[Aib]QGTFTSDYSKYLDCRRAQVFVQWLMRT [glucagon derivative of SEQ ID NO: 16] | 4.2 |
| Y[Aib]QGTFTSDYSKYLCEKRAQDFVVWLMNT [glucagon derivative of SEQ ID NO: 15] | 1.1 |
| YXQGTFTSDYSKYLDSRRAQDFVQWLMNTC (aminoisobutyric acid (Aib) at position 2 (printed X)) [glucagon derivative of SEQ ID NO: 44] | 75.4 |
| Y[Aib]QGTFTSDYSKYLDCKRAKEFVQWLMNT [glucagon derivative of SEQ ID NO: 14] | 18.1 |
| Y[Aib]QGTFTSDYSKYLDSRRACDFRLWLMNT [glucagon derivative of SEQ ID NO: 18] | < 0.1 |
| Y[Aib]QGTFTSDCSKYLDSRRAQDFVQWLMNT [glucagon derivative of SEQ ID NO: 43] | 1.6 |
| Y[Aib]QGTFTSDYSKYLDCVRAQDFVQWLMRT [glucagon derivative of SEQ ID NO: 17] | 23.2 |
| HSQGTFTSDYSKYLDSCEADDFVQWLMNT [glucagon derivative of SEQ ID NO: 6] | < 0.1 |
| Y[Aib]QGTFCSDYSKYLDSRRAQDFVQWLMNT [glucagon derivative of SEQ ID NO: 42] | 37.9 |
| YSQGTFTSDYSKYLDSCEADDFVQWLMNT [glucagon derivative of SEQ ID NO: 7] | < 0.1 |
| HSQGTFTSDYSKYLDSCDAQDFVQWLMNT [glucagon derivative of SEQ ID NO: 4] | < 0.1 |
| Y[Aib]QGTFTSDYSKYLDSCDADDFVVWLINT [glucagon derivative of SEQ ID NO: 10] | < 0.1 |
| Y[Aib]QGTFTSDYSCYLDSRRAQDFVQWLMNT [glucagon derivative of SEQ ID NO: 13] | 5.2 |
| Y[Aib]QGTFTSDYSKYLDEKCAKEFVQWLMNT [glucagon derivative of SEQ ID NO: 11] | 4.6 |
| HSQGTFTSDYSKYLDCDRAQDFVQWLMNT [glucagon derivative of SEQ ID NO: 2] | 0.6 |
| YXQGTFTSDYSKYLDSRRAQDFVQWLMNT (aminoisobutyric acid (Aib) at position 2 (printed X)) [glucagon derivative of SEQ ID NO: 33] | 108 |
| Y[Aib]QGTFTSDYSCYLDEKRAKEFVQWLMNT [glucagon derivative of SEQ ID NO: 45] | 5.2 |
